Measured values as given in patent US20240174716A1 (VACINO BIOTECH, published 2024).

target: T1, TfR protein (Acro Biosystems. Cat. No. CD1-H5243) (UniProt P02786 89-760); experiment: FOPPR (fiber optic particle plasmon resonance); peptide coupled to chip, TfR protein loaded at 0.5-1000 ng/mL
T1 construct: Bought recombinant protein; also called TfR1; transferrin receptor
Experimental: In this Example, the binding affinity of the transporter peptides disclosed herein to TfR was analyzed by fiber optic particle plasmon resonance (FOPPR). In this Example, different amino acid sites of the transporter peptide were further substituted with different amino acids of the same property to anaylze binding affinity of these variant peptides to the transferrin receptor.
To determine the affinity of the targeting peptide to TfR1, a fiber optic particle plasmon resonance (FOPPR) affinity study was performed according to the manufacturer's instruction. Briefly, 80 μL of tested peptide (10 μg/ml) dissolved in PBS buffer (pH 7.4) was pipetted into the EDC/NHS preactivated surface of standard chip NanoAu-MM (Taipei, Taiwan) for peptide conjugating to the carboxyl group of the surface sensor chip. TfR protein (Acro Biosystems. Cat. No. CD1-H5243, Newark, DE, USA) was loading to the chip with at the concentrations of 0.5 ng/mL, 1 ng/mL, 10 ng/mL, 100 ng/mL, 500 ng/mL, and 1000 ng/mL, respectively. Based on the light intensity change, the molecules interaction parameters of KD were calculated by the FOPPR system D200 (Id M3) (Taipei, Taiwan).

T1 sequence (P02786 89-760 limits assumed): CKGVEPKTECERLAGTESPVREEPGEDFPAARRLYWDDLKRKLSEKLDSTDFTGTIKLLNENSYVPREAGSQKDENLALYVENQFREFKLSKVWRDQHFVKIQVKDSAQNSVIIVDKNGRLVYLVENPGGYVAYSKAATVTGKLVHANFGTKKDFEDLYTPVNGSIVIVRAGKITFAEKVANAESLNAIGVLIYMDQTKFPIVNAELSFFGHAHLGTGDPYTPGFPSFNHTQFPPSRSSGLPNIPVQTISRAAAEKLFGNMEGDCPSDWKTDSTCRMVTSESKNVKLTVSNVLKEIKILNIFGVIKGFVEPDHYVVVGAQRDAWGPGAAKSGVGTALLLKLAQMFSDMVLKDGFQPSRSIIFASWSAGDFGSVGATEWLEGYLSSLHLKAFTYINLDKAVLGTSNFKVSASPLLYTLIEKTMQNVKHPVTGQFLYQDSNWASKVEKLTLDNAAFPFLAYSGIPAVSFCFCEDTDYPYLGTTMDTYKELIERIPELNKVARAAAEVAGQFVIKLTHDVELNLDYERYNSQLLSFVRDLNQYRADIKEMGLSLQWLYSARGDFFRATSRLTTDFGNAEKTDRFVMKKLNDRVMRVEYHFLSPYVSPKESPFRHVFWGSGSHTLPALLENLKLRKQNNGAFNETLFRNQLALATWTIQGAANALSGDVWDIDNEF

Q: How did the Kd turn out when DITVLCKEYN (10-mer; also called transporter peptide) [PT-066] was run?
A: 86.1 nM

Q: Which Kd does the source give for DISVLMKEYD (10-mer; also called transporter peptide) [PT-001] here?
A: 71 nM

Q: For DITVLMKEYD (10-mer; also called transporter peptide) [PT-017], which Kd is on record?
A: 4.77 nM

Q: DISVLMKETD (10-mer; also called transporter peptide) [PT-057] was tested. Which Kd did it give?
A: 1.92 nM

Q: Which Kd does the source give for DISVLMKESD (10-mer; also called transporter peptide) [PT-056] here?
A: 4.1 nM

Q: How did the Kd turn out when DISVLLKEYD (10-mer; also called transporter peptide) [PT-064] was run?
A: 10.5 nM

Q: Which Kd does the source give for DILVLMKEYD (10-mer; also called transporter peptide) [PT-011] here?
A: 3.23 nM

Q: Which Kd does the source give for DISVLNKEYD (10-mer; also called transporter peptide) [PT-026] here?
A: 26 nM

Q: How did the Kd turn out when DIDVLMKEYD (10-mer; also called transporter peptide) [PT-004] was run?
A: 18.5 nM

Q: With DIHVLMKEYD (10-mer; also called transporter peptide) [PT-008] as the binder, how does the Kd read?
A: 8.07 nM

Q: Which Kd does the source give for DISVLCKEYD (10-mer; also called transporter peptide) [PT-027] here?
A: 0.27 nM

Q: With DISVLDKEYD (10-mer; also called transporter peptide) [PT-025] as the binder, how does the Kd read?
A: 0.43 nM

Q: For DISVLMKEYE (10-mer; also called transporter peptide) [PT-033], which Kd is on record?
A: 261 nM

Q: For DISVLMKEYN (10-mer; also called transporter peptide) [PT-031], which Kd is on record?
A: 4.45 nM

Q: DISVLMKEFD (10-mer; also called transporter peptide) [PT-055] was tested. Which Kd did it give?
A: 6.08 nM

Q: How did the Kd turn out when DISVLMKDYD (10-mer; also called transporter peptide) [PT-054] was run?
A: 59.3 nM

Q: With DIPVLMKEYD (10-mer; also called transporter peptide) [PT-014] as the binder, how does the Kd read?
A: 52.3 nM

Q: With DISLLMKEYD (10-mer; also called transporter peptide) [PT-022] as the binder, how does the Kd read?
A: 36.6 nM

Q: For DIHVLDKEYD (10-mer; also called transporter peptide) [PT-067], which Kd is on record?
A: 0.45 nM

Q: How did the Kd turn out when DISVLMKEYQ (10-mer; also called transporter peptide) [PT-034] was run?
A: 39.3 nM

Q: How did the Kd turn out when DISELMKEYD (10-mer; also called transporter peptide) [PT-063] was run?
A: 16.6 nM

Q: DISVLMKHYD (10-mer; also called transporter peptide) [PT-065] was tested. Which Kd did it give?
A: 0.57 nM

Q: For DISVLQKEYD (10-mer; also called transporter peptide) [PT-030], which Kd is on record?
A: 10.3 nM

Q: With DISVLSKEYD (10-mer; also called transporter peptide) [PT-051] as the binder, how does the Kd read?
A: 70 nM

Q: With DISVLEKEYD (10-mer; also called transporter peptide) [PT-029] as the binder, how does the Kd read?
A: 3.62 nM

Q: For NISVLMKEYD (10-mer; also called transporter peptide) [PT-062], which Kd is on record?
A: 1.3 nM

Q: For DISVIMKEYD (10-mer; also called transporter peptide) [PT-023], which Kd is on record?
A: 22.8 nM

Q: For DISVVMKEYD (10-mer; also called transporter peptide) [PT-024], which Kd is on record?
A: 8.22 nM

Q: DISVLKKEYD (10-mer; also called transporter peptide) [PT-028] was tested. Which Kd did it give?
A: 5.14 nM
